Results reported in publication doi:10.1101/2020.11.19.389874.

Tests used:
[1] = biological target: Urn8RA (Urinate Receptor isoform RA) expressed in CHO/G16 cells (Tribolium castaneum)
[2] = biological target: Urn8RB (Urinate Receptor isoform RB) expressed in CHO/G16 cells (Tribolium castaneum)

bioluminescence response of CHO/G16 cells expressing Urn8RA, dose-response, EC50 [1] [nM]	bioluminescence response of CHO/G16 cells expressing Urn8RB, dose-response, EC50 [2] [nM]	Substance
160	450	Tribolium castaneum diuretic hormone 37 (DH37), unlabeled (peptide)
380	340	Tribolium castaneum diuretic hormone 47 (DH47), unlabeled (peptide)
